Measured values taken from the supplement of paper PMC10126150.
± gives the standard deviation of the averaged measurements.

Test system: ATP
Test: switch fluorescence ratio, 500 uM ATP over buffer (Cy3 cluster intensity, sum of 5 cycles each) (fold (ratio)); higher = stronger signal-on switching upon ATP binding; sequences stand for … in TCGTCGGCAGCGTCAGATGTGTATAAGAGACAGTTTTTTTTTTTTTTTTTTTTTTTTT…TC
Conditions: aptamer strand: ATP DNA aptamer (quencher-CACCTGGGGGAGTATTGCGGAGGAAGG + anchor), 100 nM annealed; ATP concentration: 500 uM
How it was run: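 Switching-strand clusters labelled with Cy3 on a modified Illumina MiSeq flow-cell were annealed to 100 nM quencher-labelled ATP aptamer, imaged in selection buffer, and re-imaged after 15 min with 500 uM ATP at 22 °C. This was done over five cycles with NaOH stripping and re-annealing in between. The fluorescence ratio is summed target-cycle over summed buffer-cycle Cy3 intensity per cluster, averaged per switch-domain sequence, excluding clusters outside 100-1000 RFU.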
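Further: ATP exposure 15 min at 22 °C before imaging.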

Sequence | switch fluorescence ratio
TTTAGCTTAT | 0.9798 ± 0.0056
ATGATATGCA | 1.017 ± 0.003
AACAGAGTTT | 1.02 ± 0.026
GCGCGTTTTT | 1 ± 0.016
TTTGCCTTGC | 1.11 ± 0.067
ATGAAAGGGT | 0.998 ± 0.023
AGTGGGTTGG | 0.99 ± 0.014
CCTTATGCCA | 1.09 ± 0.061
TACACTGAAA | 1.08 ± 0.026
GAATGTATGA | 0.99 ± 0.023
AAGGTTGGGT | 0.984 ± 0.031
TAGCAGGGTT | 0.9852 ± 0.0061
TGGGTTGTGG | 1.01 ± 0.053
CATCTCAGTG | 1.03 ± 0.015
GGGGGCGGCG | 1 ± 0.051
GGTTTTTACA | 0.981 ± 0.024
ACATCAGCGG | 0.958 ± 0.031
TTTATTTGAA | 1.01 ± 0.025
TTTGTTTAGG | 1.01 ± 0.04
TTAAGGCCGG | 1.03 ± 0.025
TTAGAGCGTT | 1.72 ± 1
TTAGGAGCGG | 1.04 ± 0.047
AATAATTTAA | 0.995 ± 0.021

Sequence | switch fluorescence ratio
ATTGGGAAAA | 1.03 ± 0.019
CTGATTGGGC | 1 ± 0.013
TATAAAAACT | 1.01 ± 0.021
TAATGCGCAA | 2.56 ± 1.6
TTACTTGCAT | 1.065 ± 0.0059
ATTTTAGTTT | 1 ± 0.016
TTGGCGGGAT | 1.03 ± 0.017
GGCTTATTTT | 1.0031 ± 6.6e-05
GGATGGAAAT | 1.04 ± 0.012
AACGTTGGTA | 0.989 ± 0.034
CAGGCGTGTG | 0.995 ± 0.011
TAGCCCTGTG | 1.05 ± 0.014
GGGCTTTATA | 1.02 ± 0.014
TTCGGTTTGC | 1.02 ± 0.066
TGTGGTGGGT | 1.042 ± 0.0097
TTTATTGGAC | 1.01 ± 0.078
ATATTGAGGC | 1.01 ± 0.038
GGTGTGCAAG | 0.947 ± 0.04
TTGTATTGGA | 0.995 ± 0.015
GGAGGGAGGA | 1.25 ± 0.3
TTTCGACAAG | 1.07 ± 0.1
GGATGCTTGG | 1.05 ± 0.021
CCCTATCAAT | 1.1 ± 0.038

Sequence | switch fluorescence ratio
ATCAGAGCTG | 0.964 ± 0.032
TTTGTGGGAT | 0.998 ± 0.043
GCAAATAGTT | 0.993 ± 0.024
AAGCGTGGGG | 1.02 ± 0.025
GGAAGGGGGT | 1.01 ± 0.12
GGTCTAATGG | 0.998 ± 0.051
CTGAGCTGTG | 0.968 ± 0.035
AAGTGCTGGG | 0.993 ± 0.034
CGGAGGCAGG | 1.21 ± 0.28
AATTTGGCCC | 1.01 ± 0.031
CGTACGGGTT | 0.9959 ± 0.0039
TCATGGCCAG | 1.04 ± 0.078
TTGGAATAAA | 1.02 ± 0.015
CGAGAGGGTG | 1.03 ± 0.02
ACTCTAGTTC | 1.063 ± 0.01
CGGCCTTAGA | 0.985 ± 0.029
TATCTGTTTC | 1.01 ± 0.016
GCTTGCGGTC | 0.9873 ± 0.0095
TCGAGCAGTG | 1.06 ± 0.013
TCGTTCTGGG | 0.996 ± 0.023
TCGGAGGAGC | 1.05 ± 0.026
TTTAAAATAT | 0.998 ± 0.046
ACCATCGGGA | 1.01 ± 0.016

Sequence | switch fluorescence ratio
GTTTTATTTT | 1 ± 0.047
ATACGATTTG | 0.971 ± 0.038
CCATTAAAAG | 1 ± 0.052
TTTGGTTCTT | 1.02 ± 0.033
TGGGGGAGCT | 1.05 ± 0.11
ACTTTGGTGC | 1.03 ± 0.026
CTGGGAGTGG | 1.04 ± 0.013
CGTATTTCTG | 0.938 ± 0.072
CGCGTACATT | 1.05 ± 0.077
CGTTTTTAAA | 1.02 ± 0.04
TTAGGTGGAA | 0.976 ± 0.012
TAGATTTTGC | 1.03 ± 0.027
ATGGTGGGGC | 0.979 ± 0.047
TCGGATTCGA | 1.015 ± 0.0092
TAGCTTAACA | 0.979 ± 0.018
CAATTACGCA | 1.186 ± 0.00065
AGTTAGTAAG | 1.01 ± 0.04
CGAACCGTCA | 1.08 ± 0.028
ATATCTTTTG | 0.9904 ± 0.0088
TGAGGGCGGG | 1.03 ± 0.056
TAAATTGGGG | 0.983 ± 0.024
ACTGATAGGC | 1.18 ± 0.23
AATATCCTAT | 1.01 ± 0.03

Sequence | switch fluorescence ratio
AATGGGTAGT | 0.991 ± 0.042
ATTAAGCACC | 1.3 ± 0.079
ACCAAGAGCG | 1.05 ± 0.023
GACTAATACG | 1.04 ± 0.024
ACTTGTCATC | 0.992 ± 0.043
TGGGGGGTCG | 1.03 ± 0.051
CGTCGATAAT | 1.03 ± 0.035
TTCAACGGGG | 0.9948 ± 0.0039
TGCAGGGAGG | 1.02 ± 0.0064
TACGTTGGCA | 1.03 ± 0.035
TTCCGTGGGA | 1.06 ± 0.045
TTCGGAGGAG | 1 ± 0.012
TTGCTATGGG | 0.978 ± 0.017
CGATTTCAGA | 1.009 ± 0.01
AGTTAGACAG | 0.9737 ± 0.0062
AGTTGTCTCT | 0.979 ± 0.035
TTCAAGGGGA | 1.06 ± 0.13
AAGTCCTTCT | 1.07 ± 0.036
GAGGGCACAT | 1.03 ± 0.05
GTATGGTCGG | 0.9991 ± 0.0074
AAAATCACGG | 1.14 ± 0.1
TTTTTAGCCA | 1.05 ± 0.024
AAGGACAGGA | 1.03 ± 0.026

Sequence | switch fluorescence ratio
CTTTCTTTGG | 0.99 ± 0.018
AATCGGAGCA | 1.349 ± 0.0071
GTTAATACCC | 1.04 ± 0.014
AGAGGATGTA | 1 ± 0.056
TCCTATATAA | 1.03 ± 0.058
CCCCTGGATA | 1.03 ± 0.043
AACACCTCTC | 1.1 ± 0.07
GGGAGCGCCG | 1.03 ± 0.039
TTCATAGTGA | 0.95 ± 0.028
GAAGTATGCA | 1.04 ± 0.031
GAACATTGGT | 0.998 ± 0.042
TGTTGGTAAT | 0.996 ± 0.012
ATTACTTATC | 1.02 ± 0.018
ATGCCGGGGG | 1 ± 0.021
TTTTTATTAA | 0.989 ± 0.033
GGGTCATGTA | 1.008 ± 0.0027
TTTTATAAGT | 1.03 ± 0.021
TTGCTACTCG | 1.62 ± 0.73
TTAAAAATCG | 1.02 ± 0.037
GGGCTTCTTT | 0.996 ± 0.034
AGATATTATT | 0.9771 ± 0.0015
CGGCTACCCG | 0.989 ± 0.049
CAGCCAAAT | 1.043 ± 0.01

Sequence | switch fluorescence ratio
TGGTTTAACG | 0.99243 ± 0.00051
CCGGGGGTTT | 1.036 ± 0.0054
ATCGCGGCCG | 1.02 ± 0.04
TTGGAGGACA | 1.06 ± 0.019
GCGGGGACAA | 1.069 ± 0.0083
TGTCTTTATT | 0.988 ± 0.016
TTTTTAGCCG | 1.04 ± 0.075
GTTGTAGTCT | 1.02 ± 0.023
AGTCTCTGGG | 0.974 ± 0.024
GGCGTATGTG | 0.95983 ± 0.00095
AATGCTGACA | 1 ± 0.016
TAGTTTTTGT | 1.01 ± 0.049
TGATTGTGCA | 0.989 ± 0.035
TGATTTGTTG | 0.971 ± 0.011
AAATTGCGGG | 0.994 ± 0.048
TTCCAAACGG | 0.989 ± 0.014
CATAACGTTA | 1.032 ± 0.0071
AACAAGGGGG | 1.01 ± 0.013
TACATCGTTT | 1 ± 0.025
